Reference: the DeepSol protein solubility set

Assay: soluble on expression in E. coli; label from the status in PepcDB or PDB records

Sequence	soluble on expression in E. coli
GSHMRSRRVDVMDVMNRLILAMDLMNRDDALRVTGEVREYIDTVKIGYPLVLSEGMDIIAEFRKRFGCRIIAAFKVADIPETNEKICRATFKAGADAIIVHGFPGADSVRACLNVAEEMGREVFLLTEMSHPGAEMFIQGAADEIARMGVDLGVKNYVGPSTRPERLSRLREIIGQDSFLISPGVGAQGGDPGETLRFADAIIVGRSIYLADNPAAAAAGIIESIKDLRIPEDPAANKARKEAELAAATAEQ	soluble
MAVRPVLAVGSYLPHAPWPWGVIDQAARVLLPASTTVRAAVSLPNASAQLVRASGVLPADGTRRAVLYLHGGAFLTCGANSHGRLVELLSKFADSPVLVVDYRLIPKHSIGMALDDCHDGYRWLRLLGYEPEQIVLAGDSAGGYLALALAQRLQEVGEEPAALVAISPLLQLAKEHKQAHPNIKTDAMFPARAFDALDALVASAAARNQVDGEPEELYEPLEHITPGLPRTLIHVSGSEVLLHDAQLAAAKLAAAGVPAEVRVWPGQVHDFQVAASMLPEAIRSLRQIGEYIREATG	soluble
MGHHHHHHSHMRRAALRLCALGKGQLTPGRGLTQGPQNPKKQGIFHIHEVRDKLREIVGASTNWRDHVKAMEERKLLHSFLAKSQDGLPPRRMKDSYIEVLLPLGSEPELREKYLTVQNTVRFGRILEDLDSLGVLICYMHNKIHSAKMSPLSIVTALVDKIDMCKKSLSPEQDIKFSGHVSWVGKTSMEVKMQMFQLHGDEFCPVLDATFVMVARDSENKG	not soluble
MGSDKIHHHHHHMFDVAARSGSFKQASQELGVTQSAVTRQIQTLEEQLEVRLFQRDNRVHSLTPVGLELAPQIEQIFEQLERTIERTRNLSDNTTTQLTVAISSERLRFWLAAKLADFHSLYPHIQLSFSRCNEYFINESAAEMASAIQHQSWDLAIGYGKVTDKHIQSIVLQKNQMLPVSAIKTNNSPFQLPWLINPENPDHQAMLKTYSQQLKSTRIIHCNDVQMSLDLSSAEQAVALIDSSLITPGLSNLKVYNDSAQPCQYPLSIYYRKRQRQPVALVAFIKWLQMIIS	not soluble
MGSDKIHHHHHHMMETTQFNPIQLKRARVARGKTMKVLAEETGISRQMISNYELGKTVPSGLNLVKLISVLNFPKNYFSATQASNLHGATFFRSQNAATKRARDMQSVRLSFQNDIYTTLSQYVNFPKVDLPESLDMDVDDITNDNIKFMAMRVRDQWDLGTKTPIENLIQTAEIHGIVVVKTNMTNDKLDAVSEIIEGRPFIMLTDNGESAVRRRFNVAHELGHIVLHAGIESIHDFTSQQLKNTIERQANLFASTFLMPDDAFVESLLSTSLDYYIKLKQYWKASIQSMIYKTYQLGLINDDQKLYLNKKISWNKWRKIEPLDNILEIENPTLFGKVFNMIIDHKVVSQADLLSELKLPFDELECSLGIQLATQKNISEPKLRLL	not soluble
MGQRVDKEVTPRFVELGQVSAIRTEPEIAYRSNQGVTRQRQQTKVFKLVSTYDKVAVKNAIRAAYRQVFERDLEPYIINSEFTALESKLSNNEINVKEFIEGLGTSELYMKEFYAPYPNTKVIEMGTKHFLGRAPLNQKEIQQYNQILASQGLKAFIGAMVNGMEYLQTFGEDTVPYRRFPTLPAANFPNTERLYNKLTKQDKELEHHHHHH	soluble
MAFSRTHSLLARAGSTSTYKRVWRYWYPLMTRGLGNDEIVFINWAYEEDPPMDLPLEASDEPNRAHINLYHRTATQVDLGGKQVLEVSCGHGGGASYLTRTLHPASYTGLDLNQAGIKLCKKRHRLPGLDFVRGDAENLPFDDESFDVVLNVEASHCYPHFRRFLAEVVRVLRPGGYFPYADLRPNNEIAAWEADLAATPLRQLSQRQINAEVLRGIGNNSQKSRDLVDRHLPAFLRFAGREFIGVQGTQLSRYLEGGELSYRMYCFTKD	not soluble
MAYRNIKIVKGNGGFGGPLIIAPTDEKHKFIYITGGGEKPEIVDKIVELTGMEAVNGFKTSIPDEEIALAIVDCGGTLRCGIYPKKGIPTINIVATGKSGPLAQYITEDIYVSAVGMEQITSIEESAGSIETKEAKAETAQSQTGTGTYDTSKKITEQRAQQSVIARIGMGAGKVVAVFNQAARDAIQ	not soluble
MGSDKIHHHHHHMLDKRAQILLKTLIEHYISDGQPVGSRKLSVASGLDLSPASIRNIMSELEDHGFIASPHTSAGRIPTQRGYRLFVDTLLTVQPLQNQEIRKLENVLSSPDPQELINKAAELLSSLTHFAGLVMIPKRQGAAFRHLEFLPLSEKRILVIIVTTDGAVQNRIILAEKPYSASDLTQASNFFNQHYAGNTLDEVKQKLHEELKQMQSDMTRLMAAALEASSKTADNKDGVVIAGKRNLLDVQDLSTNVSSLRKLFEMFEHRTSLMQLLDQSQKASGVQIFIGGESGYLPLDECSMVTAPYETNGQTIGTLGVIGPTRMAYERVIPIVDITAKLLSNALSNNH	not soluble
MVNKDVKQTTAFGAPVWDDNNVITAGPRGPVLLQSTWFLEKLAAFDRERIPERVVHAKGSGAYGTFTVTKDITKYTKAKIFSKVGKKTECFFRFSTVAGERGSADAVRDPRGFAMKYYTEEGNWDLVGNNTPVFFIRDAIKFPDFIHTQKRDPQTNLPNHDMVWDFWSNVPESLYQVTWVMSDRGIPKSFRHMDGFGSHTFSLINAKGERFWVKFHFHTMQGVKHLTNEEAAEIRKHDPDSNQRDLFDAIARGDYPKWKLSIQVMPEEDAKKYRFHPFDVTKIWYTQDYPLMEVGIVELNKNPENYFAEVEQAAFTPANVVPGIGYSPDRMLQGRLFSYGDTHRYRLGVNYPQIPVNKPRCPFHSSSRDGYMQNGYYGSLQNYTPSSLPGYKEDKSARDPKFNLAHIEKEFEVWNWDYRADDSDYYTQPGDYYRSLPADEKERLHDTIGESLAHVTHKEIVDKQLEHFKKADPKYAEGVKKALEKHQKMMKDMHGKDMHHTKKKK	soluble
MGSDKIHHHHHHMMGGFTVLIEMHCHTSEYSSCSGVAAVNLVRQVAAKNLQGIVLTDHHHLWEASELADVRRRAEVPDHFVILAGQEVTTPELGDVLVFGADATIERGTPLAEIRRRYPAAALVWAHPYRRGKRPTPEQLCHPLLDGVEIFNSNHTVRENSQGLQDWHRDRFTAIAGTDTHGENYAGLYPTQFDHAVKTIADLAAEIRHGRCRPFLKEIPRSGANSQVIEVTIGTKGADEVRERLIIKEIGTRHKWRSAERAFRIMGEIVGHGFDEGKFRVPRPIDEDEASMTLIEQGLRGKSLFDKLLTAEPEDGRAYLSLAAGWLARLHGCRLRITPRDEFLVREDERLARYLERFTAIGHRHTRKVQEILAAVAAEERRVVAEGSAYMVQGHGDFHPKNVFVGQDVMENRSTLFVAAIDFESSYVLPRAFDVGCFLAQFRNQFYHYGEIVNAYPEELFLEAYLRDSDQVEPDFLRQVELFRARTNMSIAAYLVKVGLGDSEDLWRVIVEAERSISNLSTGPAG	not soluble
MSQAFTESVKTSLGPNATPRAKKLIASLVQHVHDFARENHLTTEDWLWGVDFINRIGQMSDSRRNEGILVCDIIGLETLVDALTNESEQSNHTSSAILGPFYLPDSPVYPNGGSIVQKAIPTDVKCFVRGKVTDTEGKPLGGAQLEVWQCNSAGFYSQQADHDGPEFNLRGTFITDDEGNYSFECLRPTSYPIPYDGPAGDLLKIMDRHPNRPSHIHWRVSHPGYHTLITQIYDAECPYTNNDSVYAVKDDIIVHFEKVDNKDKDLVGKVEYKLDYDISLATESSIQEARAAAKARQDAEIKL	soluble
AHHHHHHGSKFNEFKTPQIDPIFDLYVAYGYVESLIRGGAKEATLIPHGASYLIQTDVSNEEFRHGLVDALSEMLSLHIALARHSPREGGKLVSDADFSAGANINNVYWDSVPRNLEKVMKDLEKKRSVKGTATIPITLMPSAGKYMLKHFGVQGGNPIKVDLLNYALAWVGFHYYTPYIKYAKGDTTWIHIYQIAPVEEVDMISILSLKDLKMHLPHYYESNLDFLINRRLALLYHLLHSESLGALELFTEKEFVIHSYTLERSGNNQAIRSFEEEEIGKLMDFLWKLKRRDFYHAIKFIDDLLKKATEGALALIDAIMNERLEGFYTALKLGKKAGVVSSREIVAALEDIICER	not soluble
MGSDKIHHHHHHMKNLLVVLLSLVSVLSFSVSLNDVLQTALASSTDYQIAQISLESATMDYEKAKLEATNKRSELSAELSYYNNLQSYRNSLKSAYQDVLGRIFNLLTADLSYEIAQLNFENAQEDYKTSQELFKKNLISENDLKDSELTLEEASNNLLSAQKDLEEAQKDYEEIFSVEVSEIELPLIDYQNLVGEDEYLDNLSSVKIAELNMKIAEYDLNNLSASASKYEQKKAELNYKKSKMNYDEALKEAKDSYKSTLDSLEIAFLNLKVLKEKIELNENILKDYQERYEKGLISKKELNTQKINLLNIKKNYLNSLRSYYISIVNLLIDAGKEVSF	not soluble
MGSDKIHHHHHHMRVKYFGTDGIRGIFGETLTDELAFKVGKALGEIVGEGKVIVGKDTRVSGDSLEAAISAGLTSMGVDVLLCGILPTPAVALLTRITRSFGVVISASHNPPEYNGIKVLKGGYKIPDEMEAEIEKRLENGSFLTRSVVGRTKSFREGRDMYIGAVLEMFRDLDLTGEMVSLDLANGATTTTAREVFEFLGAKVEVFNDSQDGLLINQGCGATHPRFLAEEMKNGKVGFTFDGDGDRVIAVDEERNVVNGDRIIGILAVGLKEEGRLNSDTVVGTVMTNGGLEDFLKEKGIRLLRTKVGDKYVLEKMLESGANLGGERSGHIIILDRSTTGDGLITALELMRVLKRSGRKLSDFAKEIPDYPQITKNVRRTERMSLENENLRKIVEESTSRGYRVVIRPSGTEPVIRITVEGKDREEIEKIVEEISRVLES	not soluble
MRRLLKEQFEAELPEDIRFYMGGKSRVYAYKSCEFDEIASHRGIYFGTIERDGLRLSIEGSFIAGKLAKKNVIELDEESFGRWMRGEDIEADVKGYCIVKHGSYFAGCGKGNGRVLRNFVPKDRRVID	not soluble
MVAENQPGHIDQIKQTNAGAVYRLIDQLGPVSRIDLSRLAQLAPASITKIVREMLEAHLVQELEIKEAGNRGRPAVGLVVETEAWHYLSLRISRGEIFLALRDLSSKLVVEESQELALKDDSPLLDRIISHIDQFFIRHQKKLERLTSIAITLPGIIDTENGIVHRMPFYEDVKEMPLGEALEQHTGVPVYIQHDISAWTMAEALFGASRGARDVIQVVIDHNVGAGVITDGHLLHAGSSSLVEIGHTQVDPYGKRCYCGNHGCLETIASVDSILELAQLRLNQSMSSMLHGQPLTVDSLCQAALRGDLLAKDIITGVGAHVGRILAIMVNLFNPQKILIGSPLSKAADILFPVISDSIRQQALPAYSQHISVESTQFSNQGTMAGAALVKDAMYNGSLLIRLLQG	soluble
MGSDKIHHHHHHMDITQLKMFQTVVECGTMAKASLQLHCVPSNITTRIKQLEEELGAPLFYREGKSLKLTPSGEIFLDYCHKILALCDEAKRSIHPDAPPSGPLKIGAIESSATTRLPNLLAKYHQRYPEVSIQIITGTWKQLLVDISQHKLDGAIVAGNIEFPMLNKLSIYQEDMVLIASHSLGEIRCQEDLIGKEIFMWTEGCPYRAALEEWLKLKNISLPITSITSYATIIGCVSAGSGVALVPKSIYEQYKNLAHIQSYKFEYLAFMQNHFFWHKNVSNHKARDMFIELIKSEFCL	not soluble
MRILTLGLDGSGEFAFQSHAHTDHFANGRLIFATRPTIFLSHLRNSRYYIPVDFGKKFYIGDFKAKLYPSGHILGSSGIKIWLDEGTLYYTGDVKVKKLRTVERAKLPKADFLIIESTFGLPRFTFPDPRESEKVIIGIVEDLIDRGKVPTFMANPYGKAQEIIKILNVHGYSVSVDREIAKVSKFYMKFGVRLKFEKEGEVKVSSSKGISVSGFGRIKLSNHADFWELLEIVERVNPEKVFTVYGHAEAFAKILNGLGYEAKSIRRNQKLEVWLEHHHHHH	not soluble
